Assay [1] has as its system allergen specific antibodies to ovalbumin (XOA): IgG1, IgG2a, IgG2b. Briefly: ELISA of serum IgG1, IgG2a and IgG2b antibodies after subcutaneous immunisation and booster of mice. Type of assay: in vivo, BALB/c female mice. The following applies: BALB/c mice, 0.2 mL s.c., boosted at day 21, bled 14 days after booster. The protocol:
(§1) TH1 inducing activity in mice can be equated with the production of IgG2a and IgG2b antibodies and the TH2 inducing activity with the production of IgG 1 antibodies and IgE antibodies.
(§2) Groups of 8 BALB/c female mice, 6-8 weeks of age, were injected subcutaneously in the inguinal area with 0.2 mL of one of the following vaccines:
(§3) XOA+Tyrosine: The XOA tyrosine adsorbate prepared in Preparation 2 above was diluted with an equal volume of phosphate buffered saline within 30 min prior to injection.
XOA+Tyrosine+MPL: The XOA tyrosine adsorbate prepared in Preparation 2 above was diluted with an equal volume of MPL®-AF at 500 μg/mL in phosphate buffered saline within 30 min prior to injection.
XOA+MPL: XOA was dissolved in phosphate buffered saline at 200 μg/mL and diluted with an equal volume of MPL®-AF at 500 μg/mL in phosphate buffered saline within 30 min prior to injection.
XOA Alone: XOA was dissolved at 200 μg/mL in phosphate buffered saline and diluted with an equal volume of phosphate buffered saline.
Twenty-one days later the four groups of mice were boosted with 0.2 mL of freshly prepared vaccines. Fourteen days following the booster the mice were bled and the sera separated and stored at −70° C. until assay.
(§4) The sera were assayed by conventional ELISA technique using horseradish conjugated goat anti-mouse IgG1, IgG2a, and IgG2b antibodies purchased from Southern Biotechnology, Inc. (Birmingham, Ala.) and used according to the manufacturer's instruction. The IgG1, IgG2a, and IgG2b titers represent the reciprocal serum dilution giving a reading of >0.1 OD units at A490. The serum IgE levels were measured using an anti-IgE capture ELISA followed by the use of a biotinylated ovalbumin probe. Binding was measured following the addition of a horseradish conjugated strepavidin preparation.
(An ELISA detects its analyte on a solid surface through an enzyme-linked reagent.)

The subject of assay [2] is allergen specific IgE antibody (ovalbumin). In words: anti-IgE capture ELISA with biotinylated ovalbumin probe on serum of immunised mice. The note with it: BALB/c mice, 0.2 mL s.c., boosted at day 21, bled 14 days after booster; serum at 1/10 dilution. Type of assay: in vivo, BALB/c female mice. As to the method: as §1, §2, §3
XOA+Tyrosine+MPL: The XOA tyrosine adsorbate prepared in Preparation 2 above was diluted with an equal volume of MPL®-AF at 500 μg/mL in phosphate buffered saline within 30 min prior to injection. […]
as §4

B1: ovalbumin (protein, UniProt P01012 2-386, looked up)
Ovalbumin: GSIGAASMEFCFDVFKELKVHHANENIFYCPIAIMSALAMVYLGAKDSTRTQINKVVRFDKLPGFGDSIEAQCGTSVNVHSSLRDILNQITKPNDVYSFSLASRLYAEERYPILPEYLQCVKELYRGGLEPINFQTAADQARELINSWVESQTNGIIRNVLQPSSVDSQTAMVLVNAIVFKGLWEKAFKDEDTQAMPFRVTEQESKPVQMMYQIGLFRVASMASEKMKILELPFASGTMSMLVLLPDEVSGLEQLESIINFEKLTEWTSSNVMEERKIKVYLPRMKMEEKYNLTSVLMAMGITDVFSSSANLSGISSAESLKISQAVHAAHAEINEAGREVVGSAEAGVDAASVSEEFRADHPFLFCIKHIATNAVLFFGRCVSP
notes: ovalbumin (XOA), a food allergen from chicken eggs, 200 μg/mL in phosphate buffered saline diluted with an equal volume of PBS
As for B1, in assay [1], the “IgG1 titer (reciprocal serum dilution giving a reading of >0.1 OD units at A490)” value was 6400, the “IgG2a Titer (reciprocal serum dilution giving a reading of >0.1 OD units at A490)” value is recorded as under 100 and the “IgG2b Titer (reciprocal serum dilution giving a reading of >0.1 OD units at A490)” value is given as under 100. For the same molecule, the “IgE OD at 1/10 Dilution” value in assay [2] came out at 0.235 OD units at A490.

Values taken from patent US8105605B2, “Allergen formulation” (Allergy Therapeutics (UK) Ltd., priority 1997, dated 2012).
